Measured values taken from PMC10311464.

Target: hnRNP D0 isoform 3, Myc-DDK-tagged (Origene RC200660) (UniProt Q14103-3 1-306)
Assay: EMSA

B1: rs678849 T allele probe (dsDNA)
DNA 1: TCAAAAGTACCTGCT
DNA 2: AGCAGGTACTTTTGA
- binding result: binds
